The assay has as its target Clostridium difficile toxin A (TcdA) (Clostridium difficile) (UniProt P16154). The assay can be described thus: cell-based or functional assay.

Sequence of Clostridium difficile toxin A (TcdA) (Clostridium difficile) (P16154 whole entry): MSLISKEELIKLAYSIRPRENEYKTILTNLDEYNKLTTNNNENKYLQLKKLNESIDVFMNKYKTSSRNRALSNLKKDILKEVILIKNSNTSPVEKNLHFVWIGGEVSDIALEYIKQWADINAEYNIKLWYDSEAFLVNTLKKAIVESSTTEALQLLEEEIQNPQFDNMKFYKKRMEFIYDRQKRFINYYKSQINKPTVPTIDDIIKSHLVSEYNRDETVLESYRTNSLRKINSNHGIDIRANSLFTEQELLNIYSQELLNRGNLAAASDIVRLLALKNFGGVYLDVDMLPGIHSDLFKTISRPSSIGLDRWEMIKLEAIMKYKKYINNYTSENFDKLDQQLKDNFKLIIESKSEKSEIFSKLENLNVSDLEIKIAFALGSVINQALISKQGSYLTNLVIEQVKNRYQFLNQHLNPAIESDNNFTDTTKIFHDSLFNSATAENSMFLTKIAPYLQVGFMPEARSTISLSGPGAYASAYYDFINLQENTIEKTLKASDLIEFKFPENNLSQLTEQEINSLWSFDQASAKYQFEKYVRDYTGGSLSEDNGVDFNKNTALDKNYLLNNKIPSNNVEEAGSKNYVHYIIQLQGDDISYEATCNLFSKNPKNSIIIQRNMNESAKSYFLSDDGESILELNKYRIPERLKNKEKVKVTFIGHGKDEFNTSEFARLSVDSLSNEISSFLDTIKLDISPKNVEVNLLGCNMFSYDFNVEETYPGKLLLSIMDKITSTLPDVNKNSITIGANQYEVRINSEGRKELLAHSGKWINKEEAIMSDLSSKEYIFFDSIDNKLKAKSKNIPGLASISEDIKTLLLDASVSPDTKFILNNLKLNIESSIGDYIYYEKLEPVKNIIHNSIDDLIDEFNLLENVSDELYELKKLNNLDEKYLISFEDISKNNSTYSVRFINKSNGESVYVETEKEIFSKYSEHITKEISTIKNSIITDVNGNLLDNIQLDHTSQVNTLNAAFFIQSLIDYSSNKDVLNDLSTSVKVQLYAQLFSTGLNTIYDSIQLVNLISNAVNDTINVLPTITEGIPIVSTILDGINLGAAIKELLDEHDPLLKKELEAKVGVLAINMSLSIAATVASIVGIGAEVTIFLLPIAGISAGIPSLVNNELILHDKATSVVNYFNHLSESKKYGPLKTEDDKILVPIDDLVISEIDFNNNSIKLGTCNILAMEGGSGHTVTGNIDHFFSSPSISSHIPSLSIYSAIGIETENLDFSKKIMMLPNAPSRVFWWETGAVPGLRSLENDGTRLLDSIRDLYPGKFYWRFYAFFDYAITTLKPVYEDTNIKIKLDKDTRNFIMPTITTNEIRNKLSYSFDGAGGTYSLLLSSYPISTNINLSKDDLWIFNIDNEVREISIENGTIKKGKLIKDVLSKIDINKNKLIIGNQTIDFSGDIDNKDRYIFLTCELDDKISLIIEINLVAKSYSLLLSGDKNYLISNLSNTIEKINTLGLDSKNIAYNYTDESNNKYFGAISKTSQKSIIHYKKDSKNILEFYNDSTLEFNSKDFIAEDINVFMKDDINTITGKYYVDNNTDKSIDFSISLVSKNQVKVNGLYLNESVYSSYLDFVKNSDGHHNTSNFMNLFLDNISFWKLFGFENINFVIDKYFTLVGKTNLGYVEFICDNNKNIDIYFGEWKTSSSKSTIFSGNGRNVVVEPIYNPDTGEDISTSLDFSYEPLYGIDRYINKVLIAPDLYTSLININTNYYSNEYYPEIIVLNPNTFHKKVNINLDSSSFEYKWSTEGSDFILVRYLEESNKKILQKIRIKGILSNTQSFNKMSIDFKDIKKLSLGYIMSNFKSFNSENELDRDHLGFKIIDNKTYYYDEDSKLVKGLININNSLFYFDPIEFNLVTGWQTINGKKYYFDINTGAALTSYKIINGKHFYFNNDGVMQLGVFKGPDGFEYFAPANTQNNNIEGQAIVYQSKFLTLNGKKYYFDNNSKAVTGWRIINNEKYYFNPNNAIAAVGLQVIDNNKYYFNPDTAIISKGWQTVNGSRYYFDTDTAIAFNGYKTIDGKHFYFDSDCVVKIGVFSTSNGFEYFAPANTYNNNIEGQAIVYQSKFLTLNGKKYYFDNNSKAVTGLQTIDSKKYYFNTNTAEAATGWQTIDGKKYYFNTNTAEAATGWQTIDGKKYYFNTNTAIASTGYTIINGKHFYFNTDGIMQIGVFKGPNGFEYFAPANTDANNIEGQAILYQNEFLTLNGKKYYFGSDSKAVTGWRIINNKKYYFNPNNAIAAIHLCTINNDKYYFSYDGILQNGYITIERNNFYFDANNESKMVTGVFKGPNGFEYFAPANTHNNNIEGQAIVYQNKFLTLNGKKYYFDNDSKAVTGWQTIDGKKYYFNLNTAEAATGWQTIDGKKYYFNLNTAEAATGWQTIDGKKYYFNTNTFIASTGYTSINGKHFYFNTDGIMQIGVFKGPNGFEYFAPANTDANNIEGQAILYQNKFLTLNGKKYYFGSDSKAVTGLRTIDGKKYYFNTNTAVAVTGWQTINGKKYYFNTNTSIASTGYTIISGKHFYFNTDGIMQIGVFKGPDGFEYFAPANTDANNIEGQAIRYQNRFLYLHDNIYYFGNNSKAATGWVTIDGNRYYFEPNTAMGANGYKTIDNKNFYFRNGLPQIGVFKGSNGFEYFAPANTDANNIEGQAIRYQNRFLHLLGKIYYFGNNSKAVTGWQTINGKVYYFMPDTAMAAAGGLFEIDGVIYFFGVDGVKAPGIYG

With “Merck anti-TcdA human monoclonal antibody (actoxumab)”, the minimal dose of antibody protecting Vero cells from TcdA-induced cell rounding is above 10 nM.

The record behind these values is patent US20230340087A1.
